Tests used:
[1] = tested on: human neuroblastoma SH-SY5Y cells; assay: Aβ42 aggregates on SH-SY5Y cells with or without 1,6-hexanediol treatment; type: cell-based
[2] = type: physicochemical
[3] = Diffusion coefficient of free Aβ42 in solution by MDS; type: physicochemical; details: Stokes-Einstein equation from hydrodynamic radius measured by MDS
[4] = Susceptibility of Aβ42 condensates to 1,6-hexanediol and KCl in vitro; type: physicochemical; details: confocal microscopy

Row | Compound | decrease of Aβ42 aggregate number normalised by total cell area, versus vehicle ([1]; SH-SY5Y cells, 2 μM Aβ42 monomer for 16 h, then 2.5% w/v 1,6-hexanediol) | area of Aβ42 species at high cell densities ([1]; SH-SY5Y 40 000 cells/well, 2 μM monomer, 48 h incubation) | timescale for the direct solution to amyloid fibril transition ([2]; estimated from Figure 6d (FCS, non-LLPS conditions)) | ΔG^‡LLPS, free energy barrier for monomeric to liquid transition ([2]; from t = 3 h, c = 2 μM) | ΔG^‡LTS, free energy barrier for liquid to solid transition ([2]; from t = 21 h) | diffusion coefficient of Aβ42 in solution [3] | response of mature Aβ42 condensates to 100% 1,6-hexanediol ([4]; condensates incubated 22 h on DMPC membrane, 100% (6 M) HXD) | response of Aβ42 condensates to 50% 1,6-hexanediol ([4]; condensates on lipid membrane, 50% HXD)
1 | OCCCCCCO [HXD, 1,6-hexanediol, reference compound] | 30% |  |  |  |  |  |  | 
2 | amyloid β1-42 [Aβ42] |  | < 50 µm^2 | 61 h | 8.01 kcal/mol | 8.05 kcal/mol | 1.4 ± 0.1 × 10^−10 m^2s^−1 | remained intact | dissolved

From article doi:10.1101/2024.01.14.575549v2 (bioRxiv, 2024)
